These results are taken from patent US20110311499A1 (University of Washington, published 2011).

For assay [1], the target named is T1, Tse1-His6 (purified Tse1, PA1844, with C-terminal hexahistidine tag) (Pseudomonas aeruginosa PAO1, UniProt Q9I2Q1 1-154).
T1 construct: not shown: C-terminal hexahistidine tag (six His) from pET29b+
T1 sequence: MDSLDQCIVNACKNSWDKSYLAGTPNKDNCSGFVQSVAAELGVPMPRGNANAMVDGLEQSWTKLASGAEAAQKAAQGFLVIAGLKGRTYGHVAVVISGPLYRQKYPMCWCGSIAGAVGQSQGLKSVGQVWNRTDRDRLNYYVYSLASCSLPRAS
Nature of the assay: co-immunoprecipitation (FIG. 17a).

Assay [2] concerns the target T2, Tse3-His6 (purified Tse3, PA3484, with C-terminal hexahistidine tag) (Pseudomonas aeruginosa PAO1, UniProt Q9HYC5 1-408).
T2 construct: not shown: C-terminal hexahistidine tag (six His) from pET29b+
T2 sequence: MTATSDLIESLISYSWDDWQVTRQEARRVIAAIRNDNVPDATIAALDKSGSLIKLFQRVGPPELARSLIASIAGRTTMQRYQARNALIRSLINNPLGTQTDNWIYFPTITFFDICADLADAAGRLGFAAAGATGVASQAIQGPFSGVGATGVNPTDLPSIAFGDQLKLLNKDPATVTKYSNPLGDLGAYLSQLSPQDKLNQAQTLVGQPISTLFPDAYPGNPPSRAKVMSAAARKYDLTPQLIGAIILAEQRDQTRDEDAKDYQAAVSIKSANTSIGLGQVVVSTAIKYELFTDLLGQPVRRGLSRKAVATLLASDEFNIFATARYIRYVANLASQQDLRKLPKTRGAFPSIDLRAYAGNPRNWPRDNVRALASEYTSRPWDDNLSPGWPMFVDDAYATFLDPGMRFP
Nature of the assay: co-immunoprecipitation (FIG. 17a).

B1: Tsi1-V (type VI secretion immunity protein 1 fused to the VSV-G epitope) (other)
chain: ADCTFTQLEIVPQFGSPNMFGGEDEHVRVMFSNEDPNDDNPDAFPEPPVYLADRDSGNDCRIEDGGIWSRGGVFLSQDGRRVLMHEFSGSSAELVSYDSATCKVVHREDISGQRWAVDKDGLRLGQKCSGESVDSCAKIVKRSLAPFCQTAKK
In the case of B1, the binding result in assay [1] was “binds”.

B2: Tsi3-V (type VI secretion immunity protein 3 fused to the VSV-G epitope) (other)
chain: CTAESGVDFDKTLTHPNGLVVERPVGFDARRSAEGFRFDEGGKLRNPRQLEVQRQDAPPPPDLASRRLGDGEARYKVEEDDGGSAGSEYRLWAAKPAGARWIVVSASEQSEDGEPTFALAWALLERARLQ
As for B2, in assay [2], the binding result is listed as “binds”.
